In patent publication US20220259593A1, “CONTROL OF MAMMALIAN GENE DOSAGE USING CRISPR” (The Regents of the University of California, priority 2019, published 2022):
Substitutions are numbered along the chain they refer to.

B1: cr540 (nucleic acid)
guide: GTTTAAGAGCTAAGCTGGAAACAGCATAGCAACTTTAAATAATGCTAGTCAGTTATCAACTTGAAAAAGTGGCACCGAGTCGGTGCT
modifications: listed as DNA, chemistry not fully specified
B2: cr925 (nucleic acid)
guide: B1 guide with C33G, T43G, A51C, A59T, T61G, T62A, A67T, A68C, T70A
modifications: listed as DNA, chemistry not fully specified
B3: cr551 (nucleic acid)
guide: B1 guide with A26T, C33G, T43G, A51C
modifications: listed as DNA, chemistry not fully specified
B4: cr797 (nucleic acid)
guide: B1 guide with C33G, T43G, A51C, T54G
modifications: listed as DNA, chemistry not fully specified
B5: cr990 (nucleic acid)
guide: B1 guide with G29T, C33G, T34C, T43G, A51C, C57G
modifications: listed as DNA, chemistry not fully specified
B6: cr434 (nucleic acid)
guide: B1 guide with C33G, T43G, A51C, G63C, A65T
modifications: listed as DNA, chemistry not fully specified
B7: cr565 (nucleic acid)
guide: B1 guide with C33G, T43G, A51C, T61G, T62C, A67G, A68C
modifications: listed as DNA, chemistry not fully specified
B8: cr790 (nucleic acid)
guide: B1 guide with T43G, A51C, G77A, C81T
modifications: listed as DNA, chemistry not fully specified
B9: cr020 (nucleic acid)
guide: B1 guide with G7T, C33G, T43G, A51C
modifications: listed as DNA, chemistry not fully specified
B10: cr323 (nucleic acid)
guide: B1 guide with A32G, C33G, T43G, A51C, A65C
modifications: listed as DNA, chemistry not fully specified
B11: cr710 (nucleic acid)
guide: B1 guide with C33G, T43G, A51C, C75G, G83C
modifications: listed as DNA, chemistry not fully specified
B12: cr934 (nucleic acid)
guide: B1 guide with C33G, T43G, A47T, A51C, T56C, G79T
modifications: listed as DNA, chemistry not fully specified
B13: cr283 (nucleic acid)
guide: B1 guide with C33G, T43G, A51C, G72A
modifications: listed as DNA, chemistry not fully specified
B14: cr019 (nucleic acid)
guide: B1 guide with G7C, C33G, T43G, A51C
modifications: listed as DNA, chemistry not fully specified
B15: cr929 (nucleic acid)
guide: B1 guide with C33G, T43G, A51C, G72T
modifications: listed as DNA, chemistry not fully specified
B16: cr603 (nucleic acid)
guide: B1 guide with C33G, T43G, A51C, A65G, A66C
modifications: listed as DNA, chemistry not fully specified
B17: cr858 (nucleic acid)
guide: B1 guide with A20G, C33G, T43G, A51C
modifications: listed as DNA, chemistry not fully specified
B18: cr730 (nucleic acid)
guide: B1 guide with C33G, T43G, A51C, C73G, A74G, C75G, G83C, T84C, G85C
modifications: listed as DNA, chemistry not fully specified
B19: cr412 (nucleic acid)
guide: B1 guide with C33G, T43G, A51C, C60G, G69C
modifications: listed as DNA, chemistry not fully specified
B20: cr884 (nucleic acid)
guide: B1 guide with C33G, T43G, A51C, A59C, T62A, A67T, T70G, G72T, C86A
modifications: listed as DNA, chemistry not fully specified
B21: cr978 (nucleic acid)
guide: B1 guide with C33G, T43G, A51C, C73A, C75A, G83T, G85T
modifications: listed as DNA, chemistry not fully specified
B22: cr600 (nucleic acid)
guide: B1 guide with C33G, T43G, A51C, C60G, A65G, G69C
modifications: listed as DNA, chemistry not fully specified
B23: cr444 (nucleic acid)
guide: B1 guide with C33G, T43G, A51C, A65C
modifications: listed as DNA, chemistry not fully specified
B24: cr118 (nucleic acid)
guide: B1 guide with A23G, C33G, T43G, A51C
modifications: listed as DNA, chemistry not fully specified
B25: cr366 (nucleic acid)
guide: B1 guide with C33G, T43G, A51C, A59G, T70C, C76T, G82A
modifications: listed as DNA, chemistry not fully specified
B26: cr948 (nucleic acid)
guide: B1 guide with C33G, T43G, A51C, A67G
modifications: listed as DNA, chemistry not fully specified
B27: cr018 (nucleic acid)
guide: B1 guide with G7A, C33G, T43G, A51C
modifications: listed as DNA, chemistry not fully specified
B28: cr464 (nucleic acid)
guide: B1 guide with C33G, T43G, A51C, A59C, T70G, G77A, C81T
modifications: listed as DNA, chemistry not fully specified
B29: cr345 (nucleic acid)
guide: B1 guide with A21C, C33G, T43G, A51C
modifications: listed as DNA, chemistry not fully specified
B30: cr801 (nucleic acid)
guide: B1 guide with C33G, T43G, A51C, A59G, T70C, C73A, C75G, G83C, G85T
modifications: listed as DNA, chemistry not fully specified
B31: cr896 (nucleic acid)
guide: B1 guide with C33G, T43G, A51C, C73A, A74C, T84G, G85T
modifications: listed as DNA, chemistry not fully specified
B32: cr557 (nucleic acid)
guide: B1 guide with A19C, C33G, T43G, A51C
modifications: listed as DNA, chemistry not fully specified
B33: cr888 (nucleic acid)
guide: B1 guide with C33G, T43G, A51C, G63T, A65C
modifications: listed as DNA, chemistry not fully specified
B34: cr140 (nucleic acid)
guide: B1 guide with C33G, T43G, A51C, C60T, T61C, A68G, G69A
modifications: listed as DNA, chemistry not fully specified
B35: cr334 (nucleic acid)
guide: B1 guide with C33G, T43G, A51C, C60G, T62G, A67C, G69C, G77A, C81T
modifications: listed as DNA, chemistry not fully specified
B36: cr701 (nucleic acid)
guide: B1 guide with C33G, T43G, A51C, G79C
modifications: listed as DNA, chemistry not fully specified
B37: cr971 (nucleic acid)
guide: B1 guide with C33G, T43G, A51C, G63A, A65T
modifications: listed as DNA, chemistry not fully specified
B38: cr610 (nucleic acid)
guide: B1 guide with C33G, T43G, A51C, C60G, T61A, A68T, G69C, G72A, C86T
modifications: listed as DNA, chemistry not fully specified
B39: cr408 (nucleic acid)
guide: B1 guide with C33G, T43G, A51C, A65G, G72A, C86T
modifications: listed as DNA, chemistry not fully specified
B40: cr592 (nucleic acid)
guide: B1 guide with C33G, T43G, C45T, G48A, A51C
modifications: listed as DNA, chemistry not fully specified
B41: cr561 (nucleic acid)
guide: B1 guide with C33G, T43G, A47T, A51C
modifications: listed as DNA, chemistry not fully specified

The molecules below were run on K562 CRISPRi cells (assay: Constant region variant library pooled growth screen, K562). Settings: sgRNA constant region variants; activity relative to the original, un-modified constant region cr995.
Assay type: cell-based, human
Outline: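 Library of sgRNA constant-region variants, each paired with 36 targeting sequences (essential-gene and non-targeting), transduced in duplicate into K562 CRISPRi cells, puromycin-selected and grown 4–8 days at >2000× coverage. Activity per variant is its growth phenotype normalised to the same targeting sequence with unmodified constant region.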

Row | Molecule | Mean relative activity
1 | B1 | −0.0122
2 | B2 | 1.084
3 | B3 | −0.109
4 | B4 | 1.027
5 | B5 | −0.0163
6 | B6 | 1.027
7 | B7 | 1.085
8 | B8 | −0.01697

Same assay, conditions: sgRNA constant region variants; relative to the original, un-modified constant region cr995 (= 1)

Row | Molecule | Mean relative activity
9 | B9 | 1.02
10 | B10 | 1.02
11 | B11 | 1.021
12 | B12 | 1.024
13 | B13 | 1 .01760152
14 | B14 | 1.019
15 | B15 | 1.025
16 | B16 | 1.018
17 | B17 | 1.025
18 | B18 | 1.018
19 | B19 | 1.025
20 | B20 | 1.027
21 | B21 | 1.021
22 | B22 | 1.021
23 | B23 | 1.023
24 | B24 | 1.025
25 | B25 | 1.017

Row | Molecule | Mean relative activity
26 | B26 | 1.02
27 | B27 | 1.017
28 | B28 | 1.017
29 | B29 | 1.021
30 | B30 | 1.02
31 | B31 | 1.025
32 | B32 | 1.018
33 | B33 | 1.02
34 | B34 | 1.023
35 | B35 | 1.025
36 | B36 | 1.016
37 | B37 | 1.017
38 | B38 | 1.027
39 | B39 | 1.018
40 | B40 | 1.017
41 | B41 | 1.021
